# Results from publication PMC12817079.
# Numbering of substitutions follows the chain as printed.
# T1: SOG1NAC (WT NAC domain) (Arabidopsis thaliana, UniProt Q6NQK2 58-211)
# T1 sequence: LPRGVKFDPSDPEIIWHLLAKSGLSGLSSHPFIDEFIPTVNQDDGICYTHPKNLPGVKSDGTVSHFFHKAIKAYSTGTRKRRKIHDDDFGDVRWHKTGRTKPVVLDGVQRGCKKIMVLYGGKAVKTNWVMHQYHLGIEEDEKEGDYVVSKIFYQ
# T2: SOG1NAC-RKRR (Arabidopsis thaliana, UniProt Q6NQK2 58-211, R136A;K137A;R138A;R139A)
# T2 sequence: T1 sequence with R79A, K80A, R81A, R82A
# T3: SOG1NAC-DNAstrand (Arabidopsis thaliana, UniProt Q6NQK2 58-211, R150S;H152S;T154A;R156S;T157S)
# T3 sequence: T1 sequence with R93S, H95S, T97A, R99S, T100S
# B1: Designed oligo 1 (two pBRCA1 sites) (dsDNA)
# DNA 1: TCTGTAAAGCTTTCAAGGGAAGCCTCTTTGACGTAACAGAAACCCCGGAGTAAGCTCCCGTGGGTCTGTAAAGCTTTCAAGGGAAGCCTCTTTGA
# DNA 2: TCAAAGAGGCTTCCCTTGAAAGCTTTACAGACCCACGGGAGCTTACTCCGGGGTTTCTGTTACGTCAAAGAGGCTTCCCTTGAAAGCTTTACAGA
# B2: pBRCA1 49 bp (dsDNA)
# DNA 1: GCGTGTCCTTCAAAGAGGCTTCCCTTGAAAGCTTTACAGACTAAATAAA
# DNA 2: TTTATTTAGTCTGTAAAGCTTTCAAGGGAAGCCTCTTTGAAGGACACGC
# B3: pSMR5 site 3 (dsDNA)
# DNA 1: ATTAAGAACCTTATTAGGAAAGTGCGAGAGA
# DNA 2: TCTCTCGCACTTTCCTAATAAGGTTCTTAAT
# B4: Designed oligo 2 (one pBRCA1 site) (dsDNA)
# DNA 1: TCTGTAAAGCTTTCAAGGGAAGCCTCTTTGACGTAACAGAAACCCCGGAGTAAGCTCCCGTGGGGTCGGCGATGGTGGTAACTAATTATGTTCCT
# DNA 2: AGGAACATAATTAGTTACCACCATCGCCGACCCCACGGGAGCTTACTCCGGGGTTTCTGTTACGTCAAAGAGGCTTCCCTTGAAAGCTTTACAGA
# B5: pBRCA1 31 bp (dsDNA)
# DNA 1: TCAAAGAGGCTTCCCTTGAAAGCTTTACAGA
# DNA 2: TCTGTAAAGCTTTCAAGGGAAGCCTCTTTGA
# B6: pXRI1 31 bp (dsDNA)
# DNA 1: ATAAAAAGCTTCTCTTGCAATTCTCTCTTCC
# DNA 2: GGAAGAGAGAATTGCAAGAGAAGCTTTTTAT
# B7: non-target 31 bp (random) (dsDNA)
# DNA 1: GTCGGCGATGGTGGTAACTAATTATGTTCCT
# DNA 2: AGGAACATAATTAGTTACCACCATCGCCGAC
# B8: pTKa1 31 bp (dsDNA)
# DNA 1: TGACAAATCTTCTCCAGCAATTTTCTTCCTT
# DNA 2: AAGGAAGAAAATTGCTGGAGAAGATTTGTCA
# B9: pSMR5 site 2 (RC) (dsDNA)
# DNA 1: TTAGATTGCTTCTTTATTACACTAGTTTTGG
# DNA 2: CCAAAACTAGTGTAATAAAGAAGCAATCTAA
# B10: pSMR5 97 bp (dsDNA)
# DNA 1: TACCTAGCAACTTCCAGAACAAGCTACGGTCACTTCCAAAACTAGTGTAATAAAGAAGCAATCTAATTAAGAACCTTATTAGGAAAGTGCGAGAGAG
# DNA 2: CTCTCTCGCACTTTCCTAATAAGGTTCTTAATTAGATTGCTTCTTTATTACACTAGTTTTGGAAGTGACCGTAGCTTGTTCTGGAAGTTGCTAGGTA
# B11: pSMR5 site 1 (RC) (dsDNA)
# DNA 1: TGACCGTAGCTTGTTCTGGAAGTTGCTAGGT
# DNA 2: ACCTAGCAACTTCCAGAACAAGCTACGGTCA
# How the values were obtained:
# [1] = molecular target: T1, SOG1NAC (WT NAC domain); assay: EMSA
# [2] = molecular target: T1, SOG1NAC (WT NAC domain); assay: EMSA; remark: listed apart in the source
# [3] = molecular target: T1, SOG1NAC (WT NAC domain); assay: EMSA; remark: listed apart in the source
# [4] = molecular target: T1, SOG1NAC (WT NAC domain); assay: EMSA; remark: listed apart in the source
# [5] = molecular target: T1, SOG1NAC (WT NAC domain); assay: ITC
# [6] = molecular target: T2, SOG1NAC-RKRR; assay: EMSA
# [7] = molecular target: T3, SOG1NAC-DNAstrand; assay: EMSA
# [8] = molecular target: T1, SOG1NAC (WT NAC domain); assay: EMSA; remark: listed apart in the source
# [9] = molecular target: T1, SOG1NAC (WT NAC domain); assay: ITC; remark: listed apart in the source
# [10] = molecular target: T1, SOG1NAC (WT NAC domain); assay: EMSA; remark: listed apart in the source
binder,measurement,setting,value
B1,binding result,[1],binds
B2,binding result,[2],binds
B3,binding result,[3],no binding
B4,binding result,[4],binds
B5,Kd,[5],139 nM
same,binding result,[6],no binding
same,binding result,[7],no binding
B6,binding result,[8],binds
B7,binding result,[9],no binding
B8,binding result,[8],binds
B9,binding result,[2],binds
B10,binding result,[10],binds
B11,binding result,[2],binds
